Several values for one entry are separate records, joined by “and”; a condition that tells them apart may be missing. Equal values may be shown once. Values belong to the molecule of their own block, whether it stands above or below them.
Legend:
[1] = biological target: CaMKIIβ full-length hub domain (residues 534-666) (human); assay: crystal structure
[2] = biological target: CaMKIIβ full-length hub domain (residues 534-666) (human); assay: mass photometry
[3] = biological target: CaMKIIβ full-length hub domain (residues 534-666) (human); assay: crystal structure; remark: listed apart in the source
[4] = biological target: CaMKIIβ full-length hub domain (residues 534-666) (human); assay: mass photometry; remark: listed apart in the source
[5] = biological target: CaMKIIα hub domain; assay: mass photometry
[6] = biological target: the molecule itself; assay: SEC-MALS

- stoichiometry N [1]: 14
- stoichiometry N [2]: 14 and 16
- stoichiometry N [3]: 16
- stoichiometry N [4]: 12 and 14 and 16
Molecule: CaMKIIβ full-length hub domain (residues 534-666) (domain or fragment)

- stoichiometry N [5]: 16
Molecule: CaMKIIα hub domain (domain or fragment)

B1: CaMKIIβ hub dimer variant (F585A + L622M) (domain or fragment, human, UniProt Q13554 534-666, looked up)
chain: RKQEIIKTTEQLIEAVNNGDFEAYAKICDPGLTSFEPEALGNLVEGMDFHRAYFENLLAKNSKPIHTTILNPHVHVIGEDAACIAYIRMTQYIDGQGRPRTSQSEETRVWHRRDGKWQNVHFHCSGAPVAPLQ
- stoichiometry N [6]: 2

Source: publication doi:10.1101/2023.10.09.561517 (bioRxiv, 2023)
